Experimental findings from patent publication US20240016931A1 (JIANGSU HENGRUI PHARMACEUTICALS, published 2024) are described below.

B1: hu3-09 (antibody, human IgG1, kappa, V domains shown)
VH: EVQLVQSGAEVKKPGASVKVSCKASGYTFTDDYMNWVKQAPGQRLEWIGIISPYNGGTSYNQKFKGRATLTVDKSASTAYMELSSLRSEDTAVYYCAREDYDYDGYAMDHWGQGTTVTVSS
VL: EIVLTQSPATLSLSPGERATLSCRASSSVSYMHWYQQKPGQAPRPWIYATSNLASGVPARFSGSGSGTDYTLTISRLEPEDFAVYYCQQWSSNRTFGGGTKVEIKR
notes: IgG1-YTE, kappa
B2: hu3-10 (antibody, human IgG1, kappa, V domains shown)
VH: EVQLVQSGAEVKKPGASVKVSCKASGYTFTDDYMNWVKQAPGQRLEWIGIISPYNGGTSYNQKFKGRATLTVDKSASTAYMELSSLRSEDTAVYYCAREDYDYDGYAMDHWGQGTTVTVSS
VL: EIVLTQSPATLSLSPGERATLSCRASSSVSYMHWYQQKPGQAPRPWIYATSNLASGVPARFSGSGSGTSYTLTISRLEPEDFAVYYCQQWSSNRTFGGGTKVEIKR
notes: IgG1-YTE, kappa
B3: hu3-12 (antibody, human IgG1, kappa, V domains shown)
VH: EVQLVQSGAEVKKPGASVKVSCKASGYTFTDDYMNWVRQAPGQRLEWMGIISPYNGGTSYNQKFKGRVTLTVDKSASTAYMELSSLRSEDTAVYYCAREDYDYDGYAMDYWGQGTTVTVSS
VL: EIVLTQSPATLSLSPGERATLSCRASSSVSYMHWYQQKPGQAPRPWIYATSNLASGVPARFSGSGSGTSYTLTISRLEPEDFAVYYCQQSDNVRGFGGGTKVEIKR
notes: IgG1-YTE, kappa; also called hu3VH2-H110Y + hu3VL5
B4: hu179-09 (antibody, human IgG1, kappa)
heavy: EVQLVQSGAEVKKPGSSVKVSCKASGYTFSNYLIEWVRQAPGQGLEWIGVIDPGNGDTNYNENFKGRATLTADKSTSTAYIELSSLRSEDTAVYYCAREDNTGTAFDYWGQGTTVTVSSASTKGPSVFPLAPSSKSTSGGTAALGCLVKDYFPEPVTVSWNSGALTSGVHTFPAVLQSSGLYSLSSVVTVPSSSLGTQTYICNVNHKPSNTKVDKKVEPKSCDKTHTCPPCPAPELLGGPSVFLFPPKPKDTLYITREPEVTCVVVDVSHEDPEVKFNWYVDGVEVHNAKTKPREEQYNSTYRVVSVLTVLHQDWLNGKEYKCKVSNKALPAPIEKTISKAKGQPREPQVYTLPPSRDELTKNQVSLTCLVKGFYPSDIAVEWESNGQPENNYKTTPPVLDSDGSFFLYSKLTVDKSRWQQGNVFSCSVMHEALHNHYTQKSLSLSPGK
light: SIVMTQTPLSLSVTPGQPASISCKASQSVSSDVTWYLQKPGQSPQLLIYYVSNHYTGVPDRFSGSGSGTDFTLKISRVEAEDVGVYYCQQHHRFPLTFGQGTKLEIKRTVAAPSVFIFPPSDEQLKSGTASVVCLLNNFYPREAKVQWKVDNALQSGNSQESVTEQDSKDSTYSLSSTLTLSKADYEKHKVYACEVTHQGLSSPVTKSFNRGEC
notes: IgG1-YTE, kappa
B5: hu179-08 (antibody, human IgG1, kappa)
heavy: EVQLVQSGAEVKKPGSSVKVSCKASGYTFSNYLIEWVRQAPGQGLEWIGVIDPGNGDTNYNENFKGRATLTADKSTSTAYIELSSLRSEDTAVYYCAREDNTGTAFDYWGQGTTVTVSSASTKGPSVFPLAPSSKSTSGGTAALGCLVKDYFPEPVTVSWNSGALTSGVHTFPAVLQSSGLYSLSSVVTVPSSSLGTQTYICNVNHKPSNTKVDKKVEPKSCDKTHTCPPCPAPELLGGPSVFLFPPKPKDTLYITREPEVTCVVVDVSHEDPEVKFNWYVDGVEVHNAKTKPREEQYNSTYRVVSVLTVLHQDWLNGKEYKCKVSNKALPAPIEKTISKAKGQPREPQVYTLPPSRDELTKNQVSLTCLVKGFYPSDIAVEWESNGQPENNYKTTPPVLDSDGSFFLYSKLTVDKSRWQQGNVFSCSVMHEALHNHYTQKSLSLSPGK
light: DIVMTQTPLSLSVTPGQPASISCKASQSVSSDVTWYLQKPGQSPQLLIYYVSNHYTGVPDRFSGSGSGTDFTLKISRVEAEDVGVYYCQQHHRFPLTFGQGTKLEIKRTVAAPSVFIFPPSDEQLKSGTASVVCLLNNFYPREAKVQWKVDNALQSGNSQESVTEQDSKDSTYSLSSTLTLSKADYEKHKVYACEVTHQGLSSPVTKSFNRGEC
notes: IgG1-YTE, kappa
B6: hu179-10 (antibody, human IgG1, kappa, V domains shown)
VH: EVQLVQSGAEVKKPGSSVKVSCKASGYTFSNYLIEWVRQAPGQGLEWIGVIDPGNGDTNYNENFKGRATLTADKSTSTAYIELSSLRSEDTAVYYCAREDNTGTAFDYWGQGTTVTVSS
VL: SIVMTQTPLSLSVTPGQPASISCKASQSVSSDVTWYLQKPGQSPQLLIYYVSNHYTGVPDRFSGSGSGTDFTFKISRVEAEDVGVYYCQQHHRFPLTFGQGTKLEIKR
notes: IgG1-YTE, kappa

This experiment concerns the target T1, His-tagged human TSLP antigen (huTSLP-his) (human).
T1 construct: Secreted from HEK293E and purified on nickel; whole entry named; also called Human TSLP-his
Kind of experiment: ELISA, coated huTSLP-his.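 Further: binding of antibodies to plate-bound TSLP read as absorbance at 450 nm after TMB colour development, EC50 derived from binding curves.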
Procedure: The plate was incubated at 4° C. overnight. After the liquid was discarded, 5% skim milk (skim milk powder from Brightdairy) blocking solution diluted with PBS was added at 200 μL/well, and the plate was incubated in an incubator at 37° C. for 2 h for blocking. After the blocking, the blocking solution was discarded, and the plate was washed 3 times with a PBST buffer (PBS containing 0.1% (v/v) tween-20, pH 7.4). […] After the incubation, the plate was washed 3 times with PBST. […] After the plate was washed 6 times with PBST, a TMB chromogenic substrate (KPL, 52-00-03) was added at 50 μL/well, and the plate was incubated at room temperature for 10-15 min. Then, 1 M H₂SO₄ was added at 50 μL/well to stop the reaction. The absorbance at 450 nm was read with a NOVOStar microplate reader, and the EC₅₀ values for the binding of the TSLP antibodies to TSLP were calculated.
For orientation: EC50 means the concentration giving half of the maximal effect. A high value points to lower potency in that assay. B1 showed an EC50 of 0.494 nM.
Next, B2: 0.388 nM; B3: 0.152 nM.
With B4 the figure was 0.157 nM.
With B5 the figure was 0.162 nM; with B6, 0.19 nM.
